Assay results as given in the RNAGym collection of RNA variant scans (doi:10.1073/pnas.2313332121).
Variants at the floor of the assay were thinned out.

B1: TPR 5TU (parent)
chain: GGAUCUUCUCGAUCUAACAAAAAAGACAAAUCUGCCACAAAGCUUGAGAGCAUCUUCGGAUGCAGAGGCGGCAGCCUUCGGUGGCGCGAUAGCGCCAACGUUCUCAACUAUGACACGCAAAACGCGUGCUCCGUUGAAUGGAGUUUAUCAUG

Variants of: B1
Test: polymerase ribozyme fitness, log enrichment relative to wild type (log ratio); higher = more active; in vitro selection for triplet polymerase activity
Method in brief: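 Frozen incubation at −7 °C formed the core of a single, triplicate in vitro selection round applied to PCR-built, transcribed mutant libraries of each subunit of a heterodimeric triplet polymerase ribozyme. Extended constructs were gel-excised, captured with streptavidin beads and amplified by RT-PCR, and input and output libraries were Illumina-sequenced with a filter of ≥10 input reads and ≥1 read per output. Fitness is the logarithm of genotype enrichment relative to wild-type enrichment, with inverse-variance-weighted replicate averaging, and the logarithm is base 2.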

Row | Variant | polymerase ribozyme fitness (log ratio)
1 | C54U C85U U104G A119G G136A U146G A147G | -3.62
2 | C54A G58U C99A U145A | -2.04
3 | C54A A60G G81A A91U A106U A110G G141C | ≤ -4.2
4 | U53A U55A C129U | -3.06
5 | U53A G59C C87U C96A A113G C125U | ≤ -4.2
6 | C54G U56G G92A | ≤ -4.2
7 | C54A G124A C125U A147C | -2.1
8 | U53G A150U | -1.34
9 | C54G G86A C129G | -3.8
10 | C54A U56A C96U C105U G126A | -2.51
11 | C54A A89G U90A C99G | ≤ -4.2
12 | C54A G84C | -2.93
13 | U53G C54G C57U C95U | -4.07
14 | U53C U56A G58A C76A A120G U134C | -3.01
15 | U53A G67C C85U U109G A115U | ≤ -4.2
16 | U53A G58C G59U A91G C108A G124U G126U | ≤ -4.2
17 | U53A U56A C105U | -1.66
18 | C54G G58A A89U A98G G133C | -2.63
19 | C54G C96G G128U | ≤ -4.2
20 | U53A G84A C87U A106G | -3.23
21 | C54A C123G | -1.63
22 | C54A C123U | -0.754
23 | C54U C85U C116A | 0.743
24 | U53C G94A A97G | -2.46

Row | Variant | polymerase ribozyme fitness (log ratio)
25 | C54A G81A | -1.07
26 | C54A G83C | -3.55
27 | C54G C105U | -1.24
28 | C54U A97G C99G U135G | -3.75
29 | C54G U55A G84A | -1.93
30 | C54U A97U A107C | ≤ -4.2
31 | C54A U77G C85U C93G G117C G136A | ≤ -4.2
32 | U53C U55C C105U | -1.88
33 | U53A U61G | -0.814
34 | U53A U61A | -1.15
35 | C54A A89G | -2.13
36 | C54G A66U A137G | ≤ -4.2
37 | C54U A142U | -0.665
38 | C54A G86U C105U | -2.87
39 | C54A C85G G124U | -3.78
40 | U53A G86U | -2.14
41 | U53A G86C | -3.25
42 | C54U C57G G94C U134A G136C | ≤ -4.2
43 | C54G G71C C85U C93U U144G | ≤ -4.2
44 | U53A G92C A137G | -3.41
45 | U53A U151G | ≤ -4.2
46 | U53G C95U U139G | -1.58
47 | U53G G58C G92A C125G A150C | ≤ -4.2
48 | C54A G143C | -2.81

Row | Variant | polymerase ribozyme fitness (log ratio)
49 | U53C C95U C125U A147U U148A U151G | ≤ -4.2
50 | C54A C57G A60U C87U C95U G136A | -4.11
51 | C54A G83U U134A U148C | ≤ -4.2
52 | C54A G86U A97G | ≤ -4.2
53 | U53C U139G | 0.0757
54 | C54A U61C G65A G88U C95G C103G A115C A119C U135G U144G | ≤ -4.2
55 | C54A A91U C108U G124U A138C G141A | ≤ -4.2
56 | U53A G84U C103G U148G | ≤ -4.2
57 | C54A C95A | -1.25
58 | U53A U104G | -1.97
59 | C54U C93A | -2.6
60 | C54G G84C U109C U134G U148A | ≤ -4.2
61 | C54G A64G G94A G100U C105A | ≤ -4.2
62 | C54G C87U G143C | -3.99
63 | C54A U90G | ≤ -4.2
64 | U53C C116G | 0.204
65 | U53G U55G C75U C76U G83A U135A | ≤ -4.2
66 | C54G C103U | -2.16
67 | C54A A64G C76G C93U A138C | ≤ -4.2
68 | U53A G65C C85G A137U G140C | ≤ -4.2
69 | U53A G59U | 0.71
70 | U53A G59A | -0.147
71 | U53A U55G A64U C75U A91C C116U U144A | ≤ -4.2
72 | C54A U61A A73G U77G G100A | ≤ -4.2

Row | Variant | polymerase ribozyme fitness (log ratio)
73 | C54G C87G C99G | ≤ -4.2
74 | U53A G100A | ≤ -4.2
75 | C54A G71A G88C A110G | ≤ -4.2
76 | C54U A73C G94U C116G C125A U134A | ≤ -4.2
77 | C54G C87U A122G U145C | -1.82
78 | U53G A91G | -3.94
79 | U53A G83U | -0.881
80 | C54A U56A G67U C85A G88A U101G G141C | ≤ -4.2
81 | U53C C54U | -1.25
82 | C54A G86U U101G | -3.14
83 | U53G G136C | -4.09
84 | C54U C87A A89G C96U A121U A142C | ≤ -4.2
85 | U53A G86U A142U | ≤ -4.2
86 | U53A G141A | -1.9
87 | U53A G83C C105G | ≤ -4.2
88 | C54G G81A C95U | -2.33
89 | C54G C96U U111G G133U A137G | ≤ -4.2
90 | U53G C85G | -3.69
91 | C54U C85A A119U U130G | -3.83
92 | U53A G70C C149G | ≤ -4.2
93 | U53A U61G C99U G136A | -3.67
94 | C54G C57A G58C G94A | -0.504
95 | U53A G92U | -1.74
96 | U53A G92C | -3.01

Row | Variant | polymerase ribozyme fitness (log ratio)
97 | C54A C87U C93G U134G U135A | ≤ -4.2
98 | U53A U109G C116A G136C U144C | -4.07
99 | C54U C76A C96A U127C G136A | -3.34
100 | U53G U56A A89G G94A A121G G141U G143A | ≤ -4.2
101 | U53A G65A | -1.33
102 | U53C A122G | -0.671
103 | U53G U90A C93G A110C | ≤ -4.2
104 | C54G G58A U78G C108A G126U | ≤ -4.2
105 | U53A G68U A73G U134G A138C | ≤ -4.2
106 | U53A G94U | -3.17
107 | U53A G86C A91U G136A | ≤ -4.2
108 | C54A G94C A107C C108G | ≤ -4.2
109 | U53A U102G G133U U144G | ≤ -4.2
110 | C54A G83C C85A | ≤ -4.2
111 | U53G G83C | -3.03
112 | C54A C116U | -0.368
113 | C54G C96U A142C | -3.34
114 | U53A U144G | -2.22
115 | C54A C85U C125G | -1.96
116 | U53G C123A G126C | -1.32
117 | C54U C57U G83C A106C U135C | ≤ -4.2
118 | C54A C85G | -3
119 | U53A G68U G88U U90C | ≤ -4.2
120 | U53G G59C A147C | -0.875

Row | Variant | polymerase ribozyme fitness (log ratio)
121 | U53A G58A C76U C103G A150U | ≤ -4.2
122 | C54A C132U | -2.3
123 | C54A C116U G143U | -3.09
124 | C54G G86U U135A U139A | ≤ -4.2
125 | C54U C75U | -0.0882
126 | U53A G133U | -3.53
127 | C54U C85U | -0.491
128 | U53G G94A | -4.1
129 | C54A G80C C114A U127G G143C | ≤ -4.2
130 | C54G A122G U144G | -0.687
131 | U53A G74A U145G | ≤ -4.2
132 | C54A U77A C96G U127G | ≤ -4.2
133 | C54U C99A U146G A150U | -3.6
134 | C54A G70U A91U C114U A119U A120U | ≤ -4.2
135 | U53C U77G G124C U135C | ≤ -4.2
136 | C54G G74C G80A C96U A138U | ≤ -4.2
137 | U53A U78A C85U U102C | ≤ -4.2
138 | C54G G141A | -1.35
139 | U53G U61A C85U G94U A97U G152A | ≤ -4.2
140 | C54U A60G A64G C85U C99A C105U A106C | ≤ -4.2
141 | U53A G83U A115C G124A | -2.73
142 | C54A U56A C118U | -2.14
143 | U53A U78C U134G | -2.35
144 | U53C C87G U101A | ≤ -4.2

Row | Variant | polymerase ribozyme fitness (log ratio)
145 | C54G C69A A73G G86U C105A C118A C125A U148A | ≤ -4.2
146 | C54G G80C A89G C93A | ≤ -4.2
147 | U53A G84A G94A C103U C114U G126C | ≤ -4.2
148 | C54A G83A C99U | -3.7
149 | U53C C57U A60G C69A A97U G141A U146C | -0.526
150 | C54U C72U U135C | -3.15
151 | C54U C69A | -3.63
152 | U53A C149G | -3.71
153 | U53A U55G C85A C95U A121C | ≤ -4.2
154 | C54U C76U C87U U127A U139C A142U C149G | ≤ -4.2
155 | U53A C118U | -1.08
156 | U53A U55A A121U | -2.74
157 | C54U C76G A89C A91G G94U U146G | ≤ -4.2
158 | C54G U55A G94U A98C A150G | -3.84
159 | C54U C85U A98G U134A | -3.35
160 | U53A G143U | -3.09
161 | C54A U82A U134A U146C | -3.03
162 | C54U C85U G136U | -2.08
163 | C54A G92U | -2.39
164 | C54A C85U C108U | ≤ -4.2
165 | C54A G86A | -3.13
166 | U53A G70C | ≤ -4.2
167 | U53A G70A | -3.81
